Test results reported in patent publication US20190015515A1.

How the values were obtained:
[1] = molecular target: glucose transporter 4 (GLUT4) on mouse red blood cells (mRBCs) or mRBC membranes (mouse) (UniProt P14142); experiment: ELISA of insulin bound to mRBCs
[2] = molecular target: glucose transporter 4 (GLUT4) on mouse red blood cells (mRBCs) or mRBC membranes (mouse) (UniProt P14142); experiment: ELISA of insulin released from Glu-Insulin loaded mRBCs at 37 C
[3] = molecular target: glucose transporter 1 (GLUT1) on human red blood cells (hRBCs) (human) (UniProt P11166); experiment: loading of 1x10^8 RBCs with 0.5 mg/mL Glu-Insulin overnight, ELISA
Chain of UniProt P11166 (P11166 whole entry): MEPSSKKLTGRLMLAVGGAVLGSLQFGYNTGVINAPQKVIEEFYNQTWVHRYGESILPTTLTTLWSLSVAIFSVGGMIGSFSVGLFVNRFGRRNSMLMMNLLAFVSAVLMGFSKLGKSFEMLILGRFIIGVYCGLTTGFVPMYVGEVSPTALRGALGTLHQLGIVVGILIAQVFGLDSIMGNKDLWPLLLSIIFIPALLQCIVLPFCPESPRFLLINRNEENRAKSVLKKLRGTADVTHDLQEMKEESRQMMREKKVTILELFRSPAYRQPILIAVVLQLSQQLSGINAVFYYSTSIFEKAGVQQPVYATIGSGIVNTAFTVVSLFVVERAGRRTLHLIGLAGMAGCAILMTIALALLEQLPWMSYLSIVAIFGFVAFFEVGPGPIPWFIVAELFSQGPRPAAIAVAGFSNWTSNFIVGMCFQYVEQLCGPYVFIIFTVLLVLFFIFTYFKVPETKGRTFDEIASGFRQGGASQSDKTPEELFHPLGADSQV

[4] = molecular target: glucose transporter 4 (GLUT4) on mouse red blood cells (mRBCs) or mRBC membranes (mouse) (UniProt P14142); experiment: as above
[5] = molecular target: glucose transporter 4 (GLUT4) on mouse red blood cells (mRBCs) or mRBC membranes (mouse) (UniProt P14142); experiment: flow cytometry (MFI) of Glu-FITC-insulin attached mRBCs treated with free glucose

Chain of UniProt P14142 (P14142 whole entry): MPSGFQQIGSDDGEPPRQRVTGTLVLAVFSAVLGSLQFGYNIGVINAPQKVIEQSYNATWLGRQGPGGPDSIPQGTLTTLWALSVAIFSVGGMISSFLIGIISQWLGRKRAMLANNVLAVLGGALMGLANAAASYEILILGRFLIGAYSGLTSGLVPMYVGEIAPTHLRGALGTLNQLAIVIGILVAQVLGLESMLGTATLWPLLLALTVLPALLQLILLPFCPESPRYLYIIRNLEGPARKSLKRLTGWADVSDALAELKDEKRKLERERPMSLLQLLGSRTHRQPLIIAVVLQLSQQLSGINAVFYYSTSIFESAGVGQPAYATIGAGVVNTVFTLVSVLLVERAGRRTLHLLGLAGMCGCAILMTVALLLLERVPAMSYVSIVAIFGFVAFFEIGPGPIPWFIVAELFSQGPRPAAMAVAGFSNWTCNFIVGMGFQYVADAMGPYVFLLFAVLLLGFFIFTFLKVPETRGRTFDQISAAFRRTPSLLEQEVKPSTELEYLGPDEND

glucose-modified insulin (Glu-Insulin) (from UniProt P01308 90-110; P01308 25-54) (ligand)
loaded insulin per cell [1]: < 5e-13 g per cell | percent released from mRBCs at 400 mg/dL glucose within 2 h [2]: 50% | percent of Glu-Insulin bound [3]: 60% | percent of Glu-Insulin bound [4]: 20% | decrease of insulin signal on mRBCs at 400 mg/dL glucose [5]: 50%
